Test results published in publication PMC12866175 (European journal of nuclear medicine and molecular imaging, 2021).

Assay: Radiation dosimetry and clearance kinetics from biodistribution data
Format: in vivo, BALB/c mice

## C[C@@H](O)[C@H](NC(=O)[C@@H]1CSSC[C@H](NC(=O)[C@@H](Cc2ccccc2)NC(=O)CN2CCN(CC(=O)O)CCN(CC(=O)O)CCN(CC(=O)O)CC2)C(=O)N[C@@H](Cc2ccc(O)cc2)C(=O)N[C@H](Cc2c[nH]c3ccccc23)C(=O)N[C@@H](CCCCN)C(=O)N[C@@H]([C@@H](C)O)C(=O)N1)C(=O)O [[^225Ac]Ac-DOTA-TATE, metal not drawn]
^213Bi, Blood
  Absorbed dose/injected activity: 0.0000 Gy/kBq
  Accumulated activity/organ, A~: 0.2345 kBq×h
  Decay rate constant, λeff: 0.011 h⁻¹
  Initial activity/organ, A○: 0.0042 kBq
^213Bi, Bone
  Absorbed dose/injected activity: 0.0000 Gy/kBq
  Accumulated activity/organ, A~: 0.9591 kBq×h
  Decay rate constant, λeff: 0.0070 h⁻¹
  Initial activity/organ, A○: 0.0125 kBq
^213Bi, Brain
  Absorbed dose/injected activity: 0.0000 Gy/kBq
  Accumulated activity/organ, A~: 0.4653 kBq×h
  Decay rate constant, λeff: 0.0080 h⁻¹
  Initial activity/organ, A○: 0.0066 kBq
^213Bi, Heart
  Absorbed dose/injected activity: 0.0000 Gy/kBq
  Accumulated activity/organ, A~: 0.5789 kBq×h
  Decay rate constant, λeff: 0.0030 h⁻¹
  Initial activity/organ, A○: 0.0053 kBq
^213Bi, Intestine
  Absorbed dose/injected activity: 0.0000 Gy/kBq
  Accumulated activity/organ, A~: 3.6681 kBq×h
  Decay rate constant, λeff: 0.0210 h⁻¹
  Initial activity/organ, A○: 0.1340 kBq
^213Bi, Kidney
  Absorbed dose/injected activity: 0.0000 Gy/kBq
  Accumulated activity/organ, A~: 7.7700 kBq×h
  Decay rate constant, λeff: 0.0250 h⁻¹
  Initial activity/organ, A○: 0.3639 kBq
^213Bi, Liver
  Absorbed dose/injected activity: 0.0000 Gy/kBq
  Accumulated activity/organ, A~: 28.7854 kBq×h
  Decay rate constant, λeff: -0.0073 h⁻¹
  Initial activity/organ, A○: 0.0948 kBq
^213Bi, Lung
  Absorbed dose/injected activity: 0.0000 Gy/kBq
  Accumulated activity/organ, A~: 0.9636 kBq×h
  Decay rate constant, λeff: 0.0170 h⁻¹
  Initial activity/organ, A○: 0.0270 kBq
^213Bi, Muscle
  Absorbed dose/injected activity: 0.0000 Gy/kBq
  Accumulated activity/organ, A~: 0.3058 kBq×h
  Decay rate constant, λeff: 0.0050 h⁻¹
  Initial activity/organ, A○: 0.0034 kBq
^213Bi, Pancreas
  Absorbed dose/injected activity: 0.0000 Gy/kBq
  Accumulated activity/organ, A~: 0.5253 kBq×h
  Decay rate constant, λeff: 0.0140 h⁻¹
  Initial activity/organ, A○: 0.0119 kBq
^213Bi, Salivary
  Absorbed dose/injected activity: 0.000 Gy/kBq
  Accumulated activity/organ, A~: 0.6047 kBq×h
  Decay rate constant, λeff: 0.0030 h⁻¹
  Initial activity/organ, A○: 0.0056 kBq
^213Bi, Skin
  Absorbed dose/injected activity: 0.000 Gy/kBq
  Accumulated activity/organ, A~: 0.5575 kBq×h
  Decay rate constant, λeff: 0.0040 h⁻¹
  Initial activity/organ, A○: 0.0056 kBq
^213Bi, Spleen
  Absorbed dose/injected activity: 0.0000 Gy/kBq
  Accumulated activity/organ, A~: 1.2470 kBq×h
  Decay rate constant, λeff: -0.0024 h⁻¹
  Initial activity/organ, A○: 0.0068 kBq
^213Bi, Stomach
  Absorbed dose/injected activity: 0.0000 Gy/kBq
  Accumulated activity/organ, A~: 2.4230 kBq×h
  Decay rate constant, λeff: 0.0190 h⁻¹
  Initial activity/organ, A○: 0.0777 kBq
^213Po, Blood
  Absorbed dose/injected activity: 0.0000 Gy/kBq
  Accumulated activity/organ, A~: 0.2345 kBq×h
  Decay rate constant, λeff: 0.0110 h⁻¹
  Initial activity/organ, A○: 0.0042 kBq
^213Po, Bone
  Absorbed dose/injected activity: 0.0004 Gy/kBq
  Accumulated activity/organ, A~: 0.9591 kBq×h
  Decay rate constant, λeff: 0.0070 h⁻¹
  Initial activity/organ, A○: 0.0125 kBq
^213Po, Brain
  Absorbed dose/injected activity: 0.0001 Gy/kBq
  Accumulated activity/organ, A~: 0.4653 kBq×h
  Decay rate constant, λeff: 0.0080 h⁻¹
  Initial activity/organ, A○: 0.0066 kBq
^213Po, Heart
  Absorbed dose/injected activity: 0.0002 Gy/kBq
  Accumulated activity/organ, A~: 0.5789 kBq×h
  Decay rate constant, λeff: 0.0030 h⁻¹
  Initial activity/organ, A○: 0.0053 kBq
^213Po, Intestine
  Absorbed dose/injected activity: 0.0001 Gy/kBq
  Accumulated activity/organ, A~: 3.6681 kBq×h
  Decay rate constant, λeff: 0.0210 h⁻¹
  Initial activity/organ, A○: 0.1340 kBq
^213Po, Kidney
  Absorbed dose/injected activity: 0.0015 Gy/kBq
  Accumulated activity/organ, A~: 7.7700 kBq×h
  Decay rate constant, λeff: 0.0250 h⁻¹
  Initial activity/organ, A○: 0.3639 kBq
^213Po, Liver
  Absorbed dose/injected activity: 0.0016 Gy/kBq
  Accumulated activity/organ, A~: 28.7854 kBq×h
  Decay rate constant, λeff: -0.0073 h⁻¹
  Initial activity/organ, A○: 0.0948 kBq
^213Po, Lung
  Absorbed dose/injected activity: 0.0002 Gy/kBq
  Accumulated activity/organ, A~: 0.9636 kBq×h
  Decay rate constant, λeff: 0.0170 h⁻¹
  Initial activity/organ, A○: 0.0270 kBq
^213Po, Muscle
  Absorbed dose/injected activity: 0.0001 Gy/kBq
  Accumulated activity/organ, A~: 0.3058 kBq×h
  Decay rate constant, λeff: 0.0050 h⁻¹
  Initial activity/organ, A○: 0.0034 kBq
^213Po, Pancreas
  Absorbed dose/injected activity: 0.0002 Gy/kBq
  Accumulated activity/organ, A~: 0.5253 kBq×h
  Decay rate constant, λeff: 0.0140 h⁻¹
  Initial activity/organ, A○: 0.0119 kBq
^213Po, Salivary
  Absorbed dose/injected activity: 0.0002 Gy/kBq
  Accumulated activity/organ, A~: 0.6047 kBq×h
  Decay rate constant, λeff: 0.0030 h⁻¹
  Initial activity/organ, A○: 0.0056 kBq
^213Po, Skin
  Absorbed dose/injected activity: 0.0001 Gy/kBq
  Accumulated activity/organ, A~: 0.5575 kBq×h
  Decay rate constant, λeff: 0.0040 h⁻¹
  Initial activity/organ, A○: 0.0056 kBq
^213Po, Spleen
  Absorbed dose/injected activity: 0.0006 Gy/kBq
  Accumulated activity/organ, A~: 1.2470 kBq×h
  Decay rate constant, λeff: -0.0024 h⁻¹
  Initial activity/organ, A○: 0.0068 kBq
^213Po, Stomach
  Absorbed dose/injected activity: 0.0005 Gy/kBq
  Accumulated activity/organ, A~: 2.4230 kBq×h
  Decay rate constant, λeff: 0.0190 h⁻¹
  Initial activity/organ, A○: 0.0777 kBq
^217At, Blood
  Absorbed dose/injected activity: 0.001 Gy/kBq
  Accumulated activity/organ, A~: 0.5594 kBq×h
  Initial activity/organ, A○: 0.0019 kBq
^217At, Bone
  Absorbed dose/injected activity: 0.0003 Gy/kBq
  Accumulated activity/organ, A~: 1.0195 kBq×h
  Decay rate constant, λeff: 0.0100 h⁻¹
  Initial activity/organ, A○: 0.0170 kBq
^217At, Brain
  Absorbed dose/injected activity: 0.0001 Gy/kBq
  Accumulated activity/organ, A~: 0.7934 kBq×h
  Decay rate constant, λeff: -0.0044 h⁻¹
  Initial activity/organ, A○: 0.0036 kBq
^217At, Heart
  Absorbed dose/injected activity: 0.00001 Gy/kBq
  Accumulated activity/organ, A~: 0.2102 kBq×h
  Decay rate constant, λeff: 0.0190 h⁻¹
  Initial activity/organ, A○: 0.0067 kBq
^217At, Intestine
  Absorbed dose/injected activity: 0.0002 Gy/kBq
  Accumulated activity/organ, A~: 7.2991 kBq×h
  Decay rate constant, λeff: 0.0130 h⁻¹
  Initial activity/organ, A○: 0.1532 kBq
^217At, Kidney
  Absorbed dose/injected activity: 0.0021 Gy/kBq
  Accumulated activity/organ, A~: 12.5136 kBq×h
  Decay rate constant, λeff: 0.0190 h⁻¹
  Initial activity/organ, A○: 0.4011 kBq
^217At, Liver
  Absorbed dose/injected activity: 0.0016 Gy/kBq
  Accumulated activity/organ, A~: 32.1637 kBq×h
  Decay rate constant, λeff: -0.0033 h⁻¹
  Initial activity/organ, A○: 0.1612 kBq
^217At, Lung
  Accumulated activity/organ, A~: 1.7734 kBq×h
  Decay rate constant, λeff: 0.0080 h⁻¹
  Initial activity/organ, A○: 0.251 kBq
^217At, Muscle
  Absorbed dose/injected activity: 0.00000 Gy/kBq
  Accumulated activity/organ, A~: 0.1848 kBq×h
  Decay rate constant, λeff: 0.0170 h⁻¹
